Assay results reported in patent publication US20240254182A1 (PROVINCIAL HEALTH SERVICES AUTHORITY, published 2024).

B1: WT G-CSFR(Ig-CRH), purified, tag cleaved (receptor)
chain: GSMGCGHISVSAPIVHLGDPITASCIIKQNCSHLDPEPQILWRLGAELQPGGRQQRLSDGTQESIITLPHLNHTQAFLSCSLNWGNSLQILDQVELRAGYPPAIPHNLSCLMNLTTSSLICQWEPGPETHLPTSFTLKSFKSRGNCQTQGDSILDCVPKDGQSHCSIPRKHLLLYQNMGIWVQAENALGTSMSPQLCLDPMDVVKLEPPMLRTMDPSPEAAPPQAGCLQLSWEPWQPGLHINQKCELRHKPQRGEASWALVGPLPLEALQYELCGLLPATAYTLQIRCIRWPLPGHWSDWSPSLELRTTE
notes: also called G-CSFRWT; wild type G-CSFR(Ig-CRH)

Columns and labels:
[1] = target: T1, WT G-CSF, purified from insect cells, tag cleaved (human, UniProt P09919 31-206); assay: SPR (Biacore T200, 25 °C), single-cycle kinetics, 1:1 Langmuir fit; lower end of the range found for the WT:WT pair
T1 construct: protein of the SPR; also called G-CSFWT; wild type G-CSF
T1 sequence: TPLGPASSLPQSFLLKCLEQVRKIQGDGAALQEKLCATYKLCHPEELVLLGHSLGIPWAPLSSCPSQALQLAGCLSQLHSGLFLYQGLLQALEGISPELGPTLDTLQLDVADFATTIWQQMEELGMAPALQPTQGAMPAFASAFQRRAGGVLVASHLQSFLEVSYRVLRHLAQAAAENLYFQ
Method: (§1) To assess binding affinity of G-CSFE to G-CSFRWT, recombinant G-CSFRWT purified as described in Example 5 was captured as described above in this Example. Using single-cycle kinetics, six concentrations of a two-fold dilution series of each G-CSFE mutant starting at […] with a blank buffer control were sequentially injected as described above. The same sample titration was also performed on a reference cell with no variants captured. The G-CSFRWT surface was regenerated as described above.
(§2) Double-referenced sensorgrams from duplicate or triplicate repeat injections were analyzed using Biacore™ T200 Evaluation Software v3.0 and fit to the 1:1 Langmuir binding model.
(§3) Kinetic-derived affinity constants (KD) where obtained by fitting the association and dissociation phases of the curves. The KD of WT G-CSF for WT G-CSFR(Ig-CRH) ranged between 1.8-2.5E-9. For the cases in which the kinetic parameters could not be fit an attempt was made to derive a steady state affinity constant. In those cases, the KD fold change was calculated from the steady state derived KD for the WT G-CSF:WT G-CSFR(Ig-CRH) pair and is indicated in Table 7.

[2] = target: B1; assay: SPR, single-cycle kinetics, G-CSFR(Ig-CRH) on the chip, G-CSF injected
Method: The SPR binding assays were carried out on a Biacore T200 instrument (GE Healthcare, Mississauga, ON, Canada) with PBS-T (PBS+0.05% (v/v) Tween 20) running buffer at a temperature of 25° C. CM5 Series S sensor chip, Biacore amine coupling kit (NHS, EDC and 1 M ethanolamine), and 10 mM sodium acetate buffers were all purchased from GE Healthcare. PBS running buffer with 0.05% Tween20 (PBS-T) was purchased from Teknova Inc. (Hollister, CA). Designs were assessed in three different immobilization orientations.
as §1, §2

[3] = target: T2, design 401 G-CSFR(Ig-CRH)E, tag cleaved (human, UniProt Q99062 26-331); assay: SPR, G-CSFRE amine-coupled, G-CSFE injected; steady state derived affinity constant
T2 chain: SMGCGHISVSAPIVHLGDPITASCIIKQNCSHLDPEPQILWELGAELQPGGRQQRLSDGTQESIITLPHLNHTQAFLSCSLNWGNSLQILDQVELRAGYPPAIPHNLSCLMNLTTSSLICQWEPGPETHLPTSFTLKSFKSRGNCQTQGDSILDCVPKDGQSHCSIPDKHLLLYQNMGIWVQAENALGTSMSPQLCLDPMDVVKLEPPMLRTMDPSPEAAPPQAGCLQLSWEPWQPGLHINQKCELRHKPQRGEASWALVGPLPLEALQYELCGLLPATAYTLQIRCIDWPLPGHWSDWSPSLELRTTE
Method: (§4) To determine binding affinity of G-CSFE to G-CSFRE the G-CSFRE mutant was captured by standard amine coupling as described by the manufacturer (GE LifeSciences). Briefly, immediately after EDC/NHS activation, a 5 μg/mL solution of G-CSFRE in 10 mM NaOAc, pH 5.0, was injected at a flow rate of 5 μL/min until a receptor density of ˜700-900 RU was reached. The remaining active groups were quenched by a 420 s injection of 1 M ethanolamine hydrochloride-NaOH pH 8.5 at 10 μL/min. Using single-cycle kinetics, six concentrations of a two-fold dilution series of the corresponding G-CSFE mutant starting at 200 nM with a blank buffer control were sequentially injected at 25 μL/min for 300 s with a 1800 s dissociation phase, resulting in a set of sensorgrams with a buffer blank reference. The same sample titration was also performed on a reference cell with no variants captured. The chip was regenerated to prepare for the next injection cycle by one pulse of 10 mM glycine/HCl, pH 2.0, for 30 s at 30 μL/min.
as §2, §3

[4] = target: T3, design 402 G-CSFR(Ig-CRH)E, tag cleaved (human, UniProt Q99062 26-331); assay: as above
T3 chain: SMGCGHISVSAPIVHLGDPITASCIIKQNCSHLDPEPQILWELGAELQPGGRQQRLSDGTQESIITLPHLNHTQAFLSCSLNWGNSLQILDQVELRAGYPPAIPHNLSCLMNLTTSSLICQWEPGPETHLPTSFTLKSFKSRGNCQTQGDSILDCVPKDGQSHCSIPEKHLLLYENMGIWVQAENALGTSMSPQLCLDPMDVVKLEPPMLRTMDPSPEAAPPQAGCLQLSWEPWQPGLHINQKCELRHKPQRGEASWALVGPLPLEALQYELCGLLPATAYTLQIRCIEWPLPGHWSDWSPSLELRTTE
Method: as §4, §2, §3

[5] = target: T4, design 130 G-CSFR(Ig-CRH)E, tag cleaved (human, UniProt Q99062 26-331); assay: SPR, G-CSFRE amine-coupled, G-CSFE injected, single-cycle kinetics
T4 construct: also called 130 ECD (Ig-CRH)
T4 chain: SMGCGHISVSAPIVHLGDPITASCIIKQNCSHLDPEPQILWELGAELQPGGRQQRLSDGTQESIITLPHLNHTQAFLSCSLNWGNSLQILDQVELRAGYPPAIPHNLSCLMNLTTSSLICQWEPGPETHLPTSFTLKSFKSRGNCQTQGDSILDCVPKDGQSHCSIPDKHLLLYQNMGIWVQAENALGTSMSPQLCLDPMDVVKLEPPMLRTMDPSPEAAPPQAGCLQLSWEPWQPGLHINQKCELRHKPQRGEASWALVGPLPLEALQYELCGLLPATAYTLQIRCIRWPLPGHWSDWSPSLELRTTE

[6] = target: T5, design 134 G-CSFR(Ig-CRH)E, tag cleaved (human, UniProt Q99062 26-331); assay: as above
T5 construct: also called design 137 G-CSFR(Ig-CRH)E
T5 chain: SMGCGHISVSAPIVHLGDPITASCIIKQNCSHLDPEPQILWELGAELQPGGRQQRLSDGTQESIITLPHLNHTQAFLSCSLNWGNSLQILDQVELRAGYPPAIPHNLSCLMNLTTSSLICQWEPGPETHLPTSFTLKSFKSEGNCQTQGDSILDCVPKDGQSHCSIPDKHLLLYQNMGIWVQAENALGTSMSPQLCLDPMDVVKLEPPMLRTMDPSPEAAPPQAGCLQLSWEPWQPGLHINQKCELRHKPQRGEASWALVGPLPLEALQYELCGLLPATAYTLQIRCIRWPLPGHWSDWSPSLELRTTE

## B1
[1]
  Kd: 1.8 to 2.5 nM

B2: design 401 G-CSFE, tag cleaved (ligand)
chain: TPLGPASSLPQSFLLKCLKQVRKIQGDGAALQEKLCATYKLCHPERLVLLGHSLGIPWAPLSSCPSQALQLAGCLSQLHSGLFLYQGLLQALEGISPELGPTLDTLQKDVARFATTIWQQMEELGMAPALQPTQGAMPAFASAFQRRAGGVLVASHLQSFLEVSYRVLRHLAQAAAENLYFQ
[2]
  binding result: no binding
[3]
  KD fold change (against WT:WT): 0.6 fold

B3: design 402 G-CSFE, tag cleaved (ligand)
chain: TPLGPASSLPQSFLLKCLKQVRKIQGDGAALQEKLCATYKLCHPERLVLLGHSLGIPWAPLSSCPSQALQLAGCLSQLHSGLFLYQGLLQALEGISPELGPTLDTLQLDVAKFAKTIWQQMEELGMAPALQPTQGAMPAFASAFQRRAGGVLVASHLQSFLEVSYRVLRHLAQAAAENLYFQ
[2]
  binding result: no binding
[4]
  KD fold change (against WT:WT): 0.8 fold

B4: design 130 G-CSFE, tag cleaved (ligand)
chain: TPLGPASSLPQSFLLKCLEQVRKIQGDGAALQEKLCATYKLCHPERLVLLGHSLGIPWAPLSSCPSQALQLAGCLSQLHSGLFLYQGLLQALEGISPELGPTLDTLQKDVARFATTIWQQMEELGMAPALQPTQGAMPAFASAFQRRAGGVLVASHLQSFLEVSYRVLRHLAQAAAENLYFQ
notes: also called design 137 G-CSFE; G-CSF137
[5]
  KD fold change (against WT:WT): 0.9 fold
[6]
  KD fold change (against WT:WT): 0.3 fold
[2]
  binding result: no binding
